{"source": "patent US20030108554A1", "about": "(published 2003)", "key": {"[1]": {"target": "T1, GIP130c (human, UniProt Q4L180 1-1128)", "T1 construct": "Full length; tested as GAL4 domain fusion in yeast two-hybrid", "T1 sequence": "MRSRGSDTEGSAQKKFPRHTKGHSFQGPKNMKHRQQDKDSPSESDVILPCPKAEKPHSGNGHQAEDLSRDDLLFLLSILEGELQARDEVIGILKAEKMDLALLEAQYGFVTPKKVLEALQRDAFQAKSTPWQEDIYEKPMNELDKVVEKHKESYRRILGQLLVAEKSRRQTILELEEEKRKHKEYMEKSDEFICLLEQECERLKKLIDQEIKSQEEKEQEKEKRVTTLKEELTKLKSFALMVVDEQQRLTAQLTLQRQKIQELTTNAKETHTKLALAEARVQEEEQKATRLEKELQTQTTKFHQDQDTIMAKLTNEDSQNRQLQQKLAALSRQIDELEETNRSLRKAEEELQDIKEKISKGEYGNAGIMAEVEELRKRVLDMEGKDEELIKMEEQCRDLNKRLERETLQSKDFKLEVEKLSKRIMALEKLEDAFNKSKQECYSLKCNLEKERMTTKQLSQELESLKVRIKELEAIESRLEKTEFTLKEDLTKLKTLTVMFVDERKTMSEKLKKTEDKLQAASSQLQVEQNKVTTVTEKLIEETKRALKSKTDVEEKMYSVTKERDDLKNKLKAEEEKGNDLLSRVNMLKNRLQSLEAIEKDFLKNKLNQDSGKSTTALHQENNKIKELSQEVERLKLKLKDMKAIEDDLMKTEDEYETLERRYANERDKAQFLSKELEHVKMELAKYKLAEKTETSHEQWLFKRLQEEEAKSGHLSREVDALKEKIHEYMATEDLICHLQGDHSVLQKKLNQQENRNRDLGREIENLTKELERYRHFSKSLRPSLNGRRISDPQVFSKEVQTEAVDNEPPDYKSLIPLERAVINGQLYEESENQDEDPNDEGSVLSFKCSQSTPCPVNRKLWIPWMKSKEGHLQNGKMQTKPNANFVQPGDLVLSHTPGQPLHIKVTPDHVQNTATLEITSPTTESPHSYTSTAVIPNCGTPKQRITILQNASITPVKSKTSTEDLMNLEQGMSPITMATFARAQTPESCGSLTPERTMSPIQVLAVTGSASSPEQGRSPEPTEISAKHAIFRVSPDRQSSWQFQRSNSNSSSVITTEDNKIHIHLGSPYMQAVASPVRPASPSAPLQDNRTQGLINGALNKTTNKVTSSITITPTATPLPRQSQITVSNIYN", "experiment": "yeast two-hybrid and three-hybrid (conclusion)", "method": "(§1) Accordingly, we have observed with a yeast three-hybrid system that GPBP expression efficiently impairs both I-20 and GIP90 aggregation, and that I-20 and GIP90 efficiently impair GPBP aggregation.\n(§2) Deletion mutants were obtained using specific primers and PCR, followed by cloning of the resulting cDNAs in the pGBT9 and pGAD424 vectors. The assays were performed in SFY526 or HF7c Saccharomyces cerevisiae strains, with pGBT9 as GAL4 binding domain vector and pGAD424 as GAL4 activation domain vector, by the lift colony assay procedure. Briefly, the yeast cells were co-transformed with constructs of both binding domain and activation domain vectors, and the co-transformants were selected in medium deficient in both tryptophan and leucine. After five days of incubation at 30° C. the colonies were tested for the expression of β-galactosidase with X-Gal substrate (0.75 mg/ml). […] When the assays were performed with the HF7c strain, the interactions were assessed by the lift colony assay procedure and by growth in medium deficient in histidine, tryptophan and leucine. For yeast three-hybrid system, we used the pBRIDGE vector, which allows the conditional expression of a third protein apart from the usual GAL4 binding and activation domain-fusion proteins of the two-hybrid system. In this case, the expression of GPBP or I-20 or GIP90 was driven by Met25 promoter, active in absence of methionine. In these experiments, the transformed SFY526 cells were plated in medium deficient in tryptophan, leucine and methionine, and subjected to the colony lift assay after five days at 30° C. In the case of the strain HF7c the colonies grown in the cited plates were streaked on medium with the additional deficiency of histidine."}, "[2]": {"target": "T2, GIP130a (human, UniProt Q4L180 1-1135)", "T2 construct": "Full length; tested as GAL4 domain fusion in yeast two-hybrid", "T2 sequence": "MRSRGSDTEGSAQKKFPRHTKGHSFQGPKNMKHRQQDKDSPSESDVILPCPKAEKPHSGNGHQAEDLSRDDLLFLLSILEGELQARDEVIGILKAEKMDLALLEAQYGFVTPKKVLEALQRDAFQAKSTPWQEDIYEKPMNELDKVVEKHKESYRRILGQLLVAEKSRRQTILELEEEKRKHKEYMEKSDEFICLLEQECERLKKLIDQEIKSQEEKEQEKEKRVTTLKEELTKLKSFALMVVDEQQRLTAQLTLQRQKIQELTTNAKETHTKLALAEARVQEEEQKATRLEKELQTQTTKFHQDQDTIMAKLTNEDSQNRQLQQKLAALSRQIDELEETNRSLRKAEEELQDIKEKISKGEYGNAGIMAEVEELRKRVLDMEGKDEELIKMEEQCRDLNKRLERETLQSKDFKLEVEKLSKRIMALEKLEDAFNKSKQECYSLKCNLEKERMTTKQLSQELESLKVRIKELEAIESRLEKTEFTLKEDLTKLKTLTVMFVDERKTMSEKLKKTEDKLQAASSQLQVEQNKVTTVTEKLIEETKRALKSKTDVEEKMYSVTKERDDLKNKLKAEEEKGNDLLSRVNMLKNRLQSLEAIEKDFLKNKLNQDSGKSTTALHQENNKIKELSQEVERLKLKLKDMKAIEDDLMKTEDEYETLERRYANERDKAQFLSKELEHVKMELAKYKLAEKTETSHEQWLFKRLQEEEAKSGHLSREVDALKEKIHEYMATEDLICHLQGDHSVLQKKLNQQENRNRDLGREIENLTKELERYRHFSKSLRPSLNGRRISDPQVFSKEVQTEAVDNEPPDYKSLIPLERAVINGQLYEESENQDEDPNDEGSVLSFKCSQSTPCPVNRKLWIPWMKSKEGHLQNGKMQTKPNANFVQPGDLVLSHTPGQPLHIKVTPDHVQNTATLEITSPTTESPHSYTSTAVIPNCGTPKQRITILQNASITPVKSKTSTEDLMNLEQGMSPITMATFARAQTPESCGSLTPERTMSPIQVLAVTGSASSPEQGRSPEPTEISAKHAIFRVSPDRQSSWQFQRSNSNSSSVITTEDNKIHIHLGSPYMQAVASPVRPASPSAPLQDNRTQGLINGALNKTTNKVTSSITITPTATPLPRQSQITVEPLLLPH", "experiment": "yeast two-hybrid and three-hybrid (conclusion)", "method": "as §1, §2"}}}
{"binder": "Goodpasture antigen binding protein (GPBP) (enzyme, UniProt Q9Y5P4 1-624, looked up, Protein kinase; Fusion parts are not written as pieces) MSDNQSWNSSGSEEDPETESGPPVERCGVLSKWTNYIHGWQDRWVVLKNNALSYYKSEDETEYGCRGSICLSKAVITPHDFDECRFDISVNDSVWYLRAQDPDHRQQWIDAIEQHKTESGYGSESSLRRHGSMVSLVSGASGYSATSTSSFKKGHSLREKLAEMETFRDILCRQVDTLQKYFDACADAVSKDELQRDKVVEDDEDDFPTTRSDGDFLHSTNGNKEKLFPHVTPKGINGIDFKGEAITFKATTAGILATLSHCIELMVKREDSWQKRLDKETEKKRRTEEAYKNAMTELKKKSHFGGPDYEEGPNSLINEEEFFDAVEAALDRQDKIEEQSQSEKVRLHWPTSLPSGDAFSSVGTHRFVQKPYSRSSSMSSIDLVSASDDVHRFSSQVEEMVQNHMTYSLQDVGGDANWQLVVEEGEMKVYRREVEENGIVLDPLKATHAVKGVTGHEVCNYFWNVDVRNDWETTIENFHVVETLADNAIIIYQTHKRVWPASQRDVLYLSVIRKIPALTENDPETWIVCNFSVDHDSAPLNNRCVRAKINVAMICQTLVSPPEGNQEISRDNILCKITYVANVNPGGWAPASVLRAVAKREYPKFLKRFTSYVQEKTAGKPILF", "values": [{"measurement": "binding result", "setting": "[1]", "result": "binds"}, {"measurement": "binding result", "setting": "[2]", "result": "binds"}]}
